Literature values, collected in article PMC4489423.
Where two headings read alike, the source gives them in different places.

Columns and labels:
[1] = biological target: IL-10R2 ECD (Homo sapiens) (UniProt Q08334); assay: SPR
[2] = biological target: IL-10R1 ECD (Homo sapiens) (UniProt Q13651); assay: SPR
[3] = biological target: IL-10R2 ECD (Homo sapiens) (UniProt Q08334)

IL-10R2 ECD (Homo sapiens), sequence (Q08334 20-220): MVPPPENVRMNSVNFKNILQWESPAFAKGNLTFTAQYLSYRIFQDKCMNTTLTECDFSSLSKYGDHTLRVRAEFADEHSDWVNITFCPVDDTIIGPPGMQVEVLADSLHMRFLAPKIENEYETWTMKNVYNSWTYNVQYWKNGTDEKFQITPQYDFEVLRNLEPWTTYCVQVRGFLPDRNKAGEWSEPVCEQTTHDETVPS
IL-10, sequence (P22301 19-178): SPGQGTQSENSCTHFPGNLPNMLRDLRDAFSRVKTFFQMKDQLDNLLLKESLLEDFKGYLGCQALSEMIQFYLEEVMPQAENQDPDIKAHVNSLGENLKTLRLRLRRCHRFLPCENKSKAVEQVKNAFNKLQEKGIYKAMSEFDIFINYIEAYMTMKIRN
IL-10R1 ECD (Homo sapiens), sequence (Q13651 22-235): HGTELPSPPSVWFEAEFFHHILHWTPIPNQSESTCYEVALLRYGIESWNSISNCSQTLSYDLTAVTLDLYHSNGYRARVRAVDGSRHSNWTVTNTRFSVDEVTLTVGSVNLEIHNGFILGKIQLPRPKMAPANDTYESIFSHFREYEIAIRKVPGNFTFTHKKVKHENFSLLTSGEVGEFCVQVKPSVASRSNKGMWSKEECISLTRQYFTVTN
IL-10/IL-10R1 complex, sequence (P22301 19-178): as the sequence (P22301 19-178) above
IL-10/IL-10R1 complex, sequence (Q13651 22-235, further chain): as the sequence (Q13651 22-235) above

Kd [1] [µM] | Kd [2] [µM] | Kd [3] [µM] | Substance
3000 | 0.00024 |  | IL-10 (from UniProt P22301)
 |  | 234 | IL-10/IL-10R1 complex (from UniProt P22301)
